These results are taken from paper PMC3350598 (Structure(London, England:1993), 2012).

Experiment [1] has as its target T1, Broxl, long form of the human Brox protein (residues 2-411) (human, UniProt Q5VW32 2-411).
T1 sequence (looked up): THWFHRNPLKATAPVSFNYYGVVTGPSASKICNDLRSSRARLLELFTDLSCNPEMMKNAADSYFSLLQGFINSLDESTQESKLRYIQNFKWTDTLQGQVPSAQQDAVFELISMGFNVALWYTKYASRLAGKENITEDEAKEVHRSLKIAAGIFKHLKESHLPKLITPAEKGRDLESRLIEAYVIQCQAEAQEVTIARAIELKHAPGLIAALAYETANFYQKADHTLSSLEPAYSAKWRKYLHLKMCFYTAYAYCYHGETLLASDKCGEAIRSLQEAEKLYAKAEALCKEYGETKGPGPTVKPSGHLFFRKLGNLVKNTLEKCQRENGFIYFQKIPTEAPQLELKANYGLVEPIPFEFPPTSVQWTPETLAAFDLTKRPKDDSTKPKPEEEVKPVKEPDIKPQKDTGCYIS
The experiment is described as follows: crystal structure.

Experiment [2] deals with T2, Broxs, short form of the human Brox protein (residues 2-377) (human, UniProt Q5VW32 2-377).
T2 sequence (looked up): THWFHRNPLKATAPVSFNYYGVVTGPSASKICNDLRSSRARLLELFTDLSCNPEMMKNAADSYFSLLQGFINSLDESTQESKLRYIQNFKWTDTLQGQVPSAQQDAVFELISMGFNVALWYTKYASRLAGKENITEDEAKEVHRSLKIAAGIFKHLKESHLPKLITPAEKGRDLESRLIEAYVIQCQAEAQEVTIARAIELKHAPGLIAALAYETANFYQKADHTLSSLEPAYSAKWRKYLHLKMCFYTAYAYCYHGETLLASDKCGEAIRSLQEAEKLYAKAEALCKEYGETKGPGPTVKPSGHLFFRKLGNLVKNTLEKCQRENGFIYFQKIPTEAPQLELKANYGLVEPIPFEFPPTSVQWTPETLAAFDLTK
Briefly: crystal structure.

On to TKNKDGVLVDEFGLPQIPAS [synthesized peptide corresponding to the CHMP5 C-terminal 20 residues], for which the binding result in experiment [1] and in experiment [2] was “binds” throughout.

B1: C-terminal fragment of human CHMP5 (residues 151-219) (domain or fragment, UniProt Q9NZZ3 151-219, looked up)
chain: RSYGTPELDEDDLEAELDALGDELLADEDSSYLDEAASAPAIPEGVPTDTKNKDGVLVDEFGLPQIPAS
For the molecule B1, the binding result in experiment [1] and in experiment [2] was “binds” in each case.
